Test results: patent publication US11752211B2, “Fatty acids and their use in conjugation to biomolecules” (NOVARTIS AG, priority 2014, dated 2023)
Starred links: 1 amine or outer side, 2 acyl side, 3 side chain; linkers in the order of their positions; H or OH if unused. Positions of bridges follow the written chain, without caps; N, C: chain ends. Non-standard residues stand in square brackets, D forms with d. Residues, ends and D or L forms follow the SMILES beside them. Groups on a side chain read outwards from the residue. *: point of attachment. PEG24 = NCCOCCOCCOCCOCCOCCOCCOCCOCCOCCOCCOCCOCCOCCOCCOCCOCCOCCOCCOCCOCCOCCOCCOCCOCCC(=O)O; Malonyl(C11H23,(CH2)10COOH) = CCCCCCCCCCCC(CCCCCCCCCCC(=O)O)(C(=O)O)C(=O)*; NGly(3-aminopropyl) = O=C(CN(CCCN[*:3])[*:1])[*:2]; pGlu = O=C1CC[C@@H](C(=O)O)N1; NHPhenethyl = c1ccc(CCN*)cc1; dNle = CCCC[C@@H](N)C(=O)O; Nle = CCCC[C@H](N)C(=O)O; Sar = CNCC(=O)O

Assays:
OT = biological target: T1, OT (Homo sapiens, UniProt P30559); assay: OT Calcium flux agonist assay (GPCRProfiler); format: cell-based; settings: read-out: OT Ca^2+ Flux EC50
T1 sequence (P30559 1-389): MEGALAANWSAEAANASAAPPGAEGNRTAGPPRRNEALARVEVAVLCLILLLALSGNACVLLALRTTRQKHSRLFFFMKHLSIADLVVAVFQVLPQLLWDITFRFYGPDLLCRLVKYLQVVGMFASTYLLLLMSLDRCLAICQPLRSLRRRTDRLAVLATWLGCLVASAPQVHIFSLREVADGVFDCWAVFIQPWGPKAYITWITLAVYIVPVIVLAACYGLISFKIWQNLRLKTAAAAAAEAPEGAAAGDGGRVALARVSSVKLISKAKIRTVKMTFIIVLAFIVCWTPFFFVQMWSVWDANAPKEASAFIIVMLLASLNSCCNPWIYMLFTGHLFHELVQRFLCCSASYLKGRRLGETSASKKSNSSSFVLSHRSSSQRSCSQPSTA
Description: Supplied compounds were prepared in DMSO and ultimately prepared in the Eurofins Discovery Services GPCRProfiler® Assay Buffer to concentrations that were three-fold higher than the final assay concentration. Similarly, vehicle controls and positive controls were prepared to ensure all assays were properly controlled.
All wells were prepared using the Eurofins Discovery Services GPCRProfiler® Assay Buffer. The GPCRProfiler® Assay Buffer was a modified Hanks Balanced Salt Solution (HBSS) where HBSS was supplemented to contain 20 mM HEPES and 2.5 mM Probenecid at pH7.4.
Compound(s) supplied were plated in duplicate for each concentration assayed.
Reference agonist, oxytocin, was prepared in a similar manner to serve as assay control. The reference agonist, oxytocin, was included at Emax (the concentration where the reference agonist elicited a maximal response).
The agonist assay was conducted on a […] instrument where the test compound(s), vehicle controls, and reference agonist were added to the assay plate after a fluorescence/luminescence baseline was established. […]
All plates were subjected to appropriate baseline corrections. Once baseline corrections were processed, maximum fluorescence/luminescence values were exported and data manipulated to calculate percentage activation and percentage inhibition. […]

[1] = In vivo plasma stability of oxytocin conjugate, 3 mg/kg iv; parameters: species or system rats; settings: 3 mg/kg intravenously; for half-life: rat, plasma, iv, male Sprague-Dawley rats, read-out: In vivo Plasma stability t½ (converted)
Description: (§1) Conjugate was dissolved in PBS (Phosphate buffered saline) to a concentration of 3 mg/ml to form Dosing solution. Dosing solution was administered intravenously to male Sprague-Dawley rats via lateral tail vein at a volume of 1 ml/kg body weight, corresponding to a dose of 3 mg/kg. Venous blood samples were acquired from a jugular vein catheter at prescribed times after dosing and immediately placed on wet ice. These samples were centrifuged at 4C, with supernatant plasma transferred to a fresh tube for analysis.
Standard curve preparation: Stock solution was prepared by dissolving peptide conjugate and peptide into two separate vials in dimethylsulfoxide to 1 mg/ml. 10 uL of each stock was mixed with 980 uL rat plasma to form a working stock of 10,000 ng/ml in plasma. This was serially diluted in plasma to form standards of 5000, 1000, 500, 100, 50, 10, 5, 1, 0.5, and 0.1 ng/ml. Sample and standard preparation: 25 uL plasma sample or standard was transferred to a clean plate. 150 uL acetonitrile containing 100 ng/ml glyburide as internal standard was added to each vial and the plate vortexed to mix the contents. The plate was centrifuged at 4000 rpm at 4 C. 125 uL supernatant was transferred to a clean plate, mixed with 150 uL water and analyzed by LC/MS.

[2] = In vivo plasma stability of APJ agonist conjugates, 1 mg/kg iv; settings: rat, male Sprague-Dawley rats, 1 mg/kg intravenously, read-out: In vivo Plasma stability t½ (converted)
Description: as §1, with “1” for “3”
• Standard curve preparation: Stock solution was prepared by dissolving peptide conjugate in water to 1 mg/ml. 10 uL of Stock was mixed with 990 uL rat plasma to form a working stock of 10,000 ng/ml in plasma. This was serially diluted in plasma to form standards of 5000, 1000, 500, 100, 50, 10, 5 and 1 ng/ml. • Sample and standard preparation: 25 uL plasma sample or standard was transferred to a clean plate. 150 uL acetonitrile:MeOH (1:1) containing 100 ng/ml glyburide as internal standard was added to each vial and the plate vortexed to mix the contents. The plate was centrifuged at 4000 rpm at 4 C. 125 uL supernatant was transferred to a clean plate, mixed with 50 uL water and analyzed by LC/MS.

[3] = Material quality check of GDF15 proteins (clipping, methionine oxidation, deamidation); format: physicochemical
Excerpt: The AHA-(200-308)-hGDF15 (SEQ ID NO: 7) was designed to remove the clipping site observed within the native protein as well as to remove the potential methioinine (M1) formylation site and the N-199 deamidation site.

[4] = test system: Diet-induced obese male mice (C57BL/6NTac); assay: DIO mice single 0.5 mg/kg sc dose: food intake and body weight; settings: exp 1 / exp 2 = separate in vivo experiments
Description: (§2) All animal studies described in this document were approved by the Novartis Institutes for Biomedical Research Animal Care and Use Committee in accordance with local and federal regulations and guidelines. Diet-induced obese male mice (C57BL/6NTac) were purchased from Taconic and fed a 60% fat diet (Research Diets D12492i) from 6-weeks of age onward. Upon arrival, mice were housed one animal per cage under a 12 h:12 h reverse light-dark cycle. Animals all received a minimum of 1 week acclimation prior to any use. Mice were typically studied between 3-4 months of age. […] On the day of study, mice were placed in fresh cages, and the old food removed. Approximately 1 h later and just prior to the dark cycle, mice received a single subcutaneous dose of either vehicle (30 mM sodium acetate, pH 4) or a lipid conjugated GDF15 analog (0.5 mg/kg). After all injections are completed, the mice were reweighed and a defined amount of food returned ([…] per mouse). In surrogate animals treated as described above, plasma was collected at the indicated times, and GDF15 levels were measured by ELISA as per the manufacturer's instructions (R&D Systems Quantikine Human GDF15 Immunoassay; DGD150). The activity and half-life of the conjugates of the invention were tested in the assay described supra.

[5] = DIO mice single 0.5 mg/kg sc dose: plasma GDF15 levels by ELISA (PK); settings: exp 1 / exp 2 = separate in vivo experiments
Description: as §2

[6] = clipping site R9/N10 (for the AHA protein: none detected)

Work on `CC[C@H](C)[C@@H]1NC(=O)[C@H](Cc2ccc(O)cc2)NC(=O)CNC(=O)CC[C@@H](C(=O)N(C)CC(=O)N[C@@H](CC(C)C)C(=O)NCC(N)=O)NC(=O)[C@H](CC(N)=O)NC(=O)[C@H](CCC(N)=O)NC1=O` (GYIQNE[Sar]LG-NH2; lactam N-6) yielded an EC50 (OT) of 7.8 nM and a half-life [1] of 0.6 h.

With `C=CCCCCCCCCCC(CCCCCCCCCCC(=O)O)(C(=O)O)C(=O)NCCOCCOCCOCCOCCOCCOCCOCCOCCOCCOCCOCCOCCOCCOCCOCCOCCOCCOCCOCCOCCOCCOCCOCCn1nnc2c1CCC1C(CC2)[C@@H]1COC(=O)NCCCC[C@@H]1NC(=O)[C@H](Cc2c[nH]cn2)NC(=O)[C@@H](NC(=O)[C@H](CC(C)C)NC(=O)[C@H](CCCNC(=N)N)NC(=O)[C@@H]2CCCN2C(=O)[C@H](CCCNC(=N)N)NC(=O)[C@@H]2CCC(=O)N2)CSSC[C@@H](C(=O)N[C@@H](Cc2ccccc2)C(=O)O)NC(=O)[C@H](CCCC)NC(=O)[C@@H]2CCCN2C(=O)CNC1=O` (stereo partly drawn) [Example 21A] the half-life ([2]; plasma) was 444 min.

With `CCCC[C@@H](NC(=O)[C@@H]1CCCN1C(=O)CNC(=O)[C@H](CCCCN)NC(=O)[C@@H]1CSSC[C@H](NC(=O)[C@@H]2CCCN2C(=O)[C@H](CCCNC(=N)N)NC(=O)[C@@H]2CCC(=O)N2)C(=O)N[C@@H](CC(C)C)C(=O)N[C@@H](CO)C(=O)N1)C(=O)NCCc1ccccc1` [pE-R—P—C*-L-S—C*—K-G-P-(D-Nle)-NH(Phenethyl) (disulfide C^4-C^7)] ([pGlu]RPCLSCKGP[dNle]-NHPhenethyl; disulfide 4-7) the half-life ([2]; in vivo) was 54 min.

In the case of `CCCC[C@@H]1NC(=O)[C@@H]2CCCN2C(=O)CNC(=O)[C@H](CCCCN)NC(=O)[C@H](Cc2cnc[nH]2)NC(=O)[C@@H](NC(=O)[C@H](CC(C)C)NC(=O)[C@H](CCCNC(=N)N)NC(=O)[C@@H]2CCCN2C(=O)[C@H](CCCNC(=N)N)NC(=O)[C@@H]2CCC(=O)N2)CSSC[C@@H](C(=O)N[C@@H](Cc2ccccc2)C(=O)O)NC1=O` [pE-R—P—R-L-C*—H—K-G-P-Nle-C*—F—OH(Disulfide C^6-C^12)] ([pGlu]RPRLCHKGP[Nle]CF-OH; disulfide 6-12), the half-life ([2]; in vivo) is reported as 42 min.

In the case of “MHHHHHH-ARN-(200-308)-hGDF15: His-tagged hGDF15 with native sequence, compared with AHA variant in material quality check”, the Methionine oxidation ([3]; M1) is reported as “M1: 12.0%”, the N-199 deamidation ([3]; N10) is reported as “N10: 50.1%” and the clipping ([3]; clipping site N10/G11) is reported as “N10/G11 (<1%)”. For the same molecule, the clipping [3, 6] was “R9/N10 (<1%)”.

With `CCCCCCCCCCCC(CCCCCCCCCCC(=O)O)(C(=O)O)C(=O)NCCOCCOCCOCCOCCOCCOCCOCCOCCOCCOCCOCCOCCOCCOCCOCCOCCOCCOCCOCCOCCOCCOCCOCCOCCC(=O)NCCCN(CC(=O)N[C@@H](CC(C)C)C(=O)NCC(N)=O)C(=O)[C@@H]1CCC(=O)NCC(=O)N[C@@H](Cc2ccc(O)cc2)C(=O)N[C@@H]([C@@H](C)CC)C(=O)N[C@@H](CCC(N)=O)C(=O)N[C@@H](CC(N)=O)C(=O)N1` (stereo partly drawn) [Example 26A] (GYIQNE[NGly(3-aminopropyl)]([PEG24-Malonyl(C11H23,(CH2)10COOH)])LG-NH2; lactam N-6) the EC50 (OT) was 8.4 nM, the half-life [1] was 46 h and the “increase in half-life compared to unconjugated oxytocin analog” value ([1]; rats) was 75 fold.

B1: 12: GDF15 conjugate listed in Table 1 only; no example text in the patent (conjugate, UniProt Q99988 195-308, looked up)
Growth/differentiation factor …: ARARNGDHCPLGPGRCCRLHTVRASLEDLGWADWVLSPREVQVTMCIGACPSQFRAANMHAQIKTSLHRLKPDTVPAPCCVPASYNPMVLIQKTDTGVSLQTYDDLLAKDCHCI
modifications: conjugate
In the case of B1, the “Duration of action: Body weight (BW) reduction” value [4] is reported as 6 to 8 days and the “Duration of action: Food Intake (FI) reduction” value [4] is reported as 6 to 8 days.

B2: hGDF15: non-conjugated hGDF15 (protein, UniProt Q99988 195-308, looked up)
Growth/differentiation factor …: B1 Growth/differentiation factor …
With B2 the “Duration of action: Body weight (BW) reduction” value [4] was 1 days, the “Duration of action: Food Intake (FI) reduction” value [4] was 1 days and the “PK (1/2 life)” value [5] was 1 h.

B3: AHA-(200-308)-hGDF15: GDF15 mutant designed to remove clipping site, methionine formylation site and N-199 deamidation site (protein)
chain: AHAGDHCPLGPGRCCRLHTVRASLEDLGWADWVLSPREVQVTMCIGACPSQFRAANMHAQIKTSLHRLKPDTVPAPCCVPASYNPMVLIQKTDTGVSLQTYDDLLAKDCHCI
modifications: GDF15 mutant, Intermediate 57 AHA-(200-308)- hGDF15
In the case of B3, the clipping [3, 6] is reported as “None”.
